Laboratory results reported in the supplement of paper PMC10567573.

B1: PTPRD (parent)
chain: FICQATGDPRPKIVWNKKGKKVSN
B2: PWWP2B (parent)
chain: TIRLRPRQVLCEKCKSTLSPPEAS

Variants of: B1
Experiment: protein stability index of a GFP-peptide fusion (GPS, HEK-293T) (PSI 1-6); higher = more stable
Details: c terminus: a fixed tail appended
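Also: lentivirally expressed fusions sorted by FACS into six bins by GFP to DsRed ratio, PSI derived from sequencing read proportions per bin multiplied by bin number.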

Protein stability index: each site, then its substitutions
N24: Y 2.08

Variants of: B2
Experiment: as above
Details: c terminus: a fixed tail appended

Protein stability index: each site, then its substitutions
E12: A 2.59; M 2.26; C 2.26; G 2.59; Y 2.2; F 2.25; I 1.93; T 2.82; D 3.28; P 2.99; L 1.97; V 2.39; H 3.03; N 2.81; R 3.08; Q 2.33; K 2.42; S 3.01; W 2.28
K13: R 3.37; Y 2.24; P 3.22; T 2.39; L 1.81; W 2.49; C 2.74; F 2.46; D 3.39; A 2.72; M 2.84; G 2.6; Q 2.83; H 2.53; S 3; N 2.78; I 2.73; V 2.71; E 3.32
T17: Q 2.78; L 3; V 2.48; I 2.88; N 2.76; S 2.96; M 2.77; G 2.82; F 2.56; D 3.19; K 2.62; W 1.89; H 2.76; Y 2.18; R 2.77; E 3.97; C 2.5; A 3.33; P 3.44
L4: G 3.63; K 3.58; D 4.18; T 3.85; F 2.77; N 3.58; S 3.6; Y 2.87; R 3.03; V 3.22; Q 3.04; P 3.45; M 3.32; H 3.23; W 2.31; E 3.79; C 3.45; A 2.99; I 2.79
L18: D 3.78; I 3.03; K 3.11; G 3.7; F 2.89; M 3.94; A 2.86; E 3.92; C 3.15; H 3.85
I2: E 3.67; T 3.85; Y 3.04; L 3.35; W 3; P 4.11; F 3.54; S 3.64; N 4.05; A 3.61; M 2.76; V 3.24; H 3.54; K 2.98; G 3.27; C 3.7; Q 3.63; D 3.68; R 3.11
C11: L 2.84; H 3.13; A 3.06; W 2.23; N 3.62; M 2.86; D 3.93; F 2.53; V 3.25; G 3.85; S 3.73; K 3.58; T 3.6; R 3.4; P 3.46; Y 3.25; Q 3.57; E 4.15; I 3.33
P6: H 2.77; E 3.8; G 3.25; M 2.37; D 3.61; F 2.05; T 3.09; L 2.04; K 2.82; V 2.19; W 2.05; C 2.46; Q 3.02; I 1.62; A 2.76; S 3.1; Y 2.04; R 2.52; N 2.53
T1: I 2.44; L 2.28; R 2.65; E 3.55; F 1.72; M 2.23; G 3.09; P 3.43; S 2.98; V 2.78; Q 3.11; W 2.12; A 2.59; K 2.98; D 3.76; Y 1.76; H 2.8; C 2.91; N 3.63
C14: V 3.52; L 3.13; H 3.52; R 3.32; W 2.58; M 3.44; S 3.84; K 4.05; T 4.22; I 3.64; F 3.19; G 4.08; E 4.23; A 3.85; D 4.04; Y 3.45; P 4.29; Q 4.05; N 4.05
V9: C 3.42; I 3; K 2.85; D 3.19; M 2.73; S 3.16; F 2.72; Y 2.54; E 3.35; P 3.13; G 2.64; H 2.97; L 2.37; W 2.24; Q 3.31; R 2.94; T 3.33; N 3.58; A 3.61
R5: A 3.34; W 2.9; C 2.77; M 3.22; P 3.54; I 2.93; K 2.96; Y 2.73; Q 3; G 3.37; E 4.03; F 3.19; V 3.52; N 2.78; T 3.1; H 3.16; L 2.91; S 3.43; D 3.73
S16: R 3.2; M 2.94; V 2.61; D 2.78; A 3.08; H 2.76; K 3.09; I 2.66; L 2.59; C 2.98; Q 3.35; E 3.65; W 1.96; T 2.92; N 3.34; F 2.18; G 3.07; Y 2.27; P 2.73
R3: Q 3.61; F 2.02; D 3.82; C 2.61; I 3.04; V 2.7; H 3.09; T 3.27; N 3.8; G 3.09; M 3.14; E 4.37; W 2.98; A 3.69; S 3.37; P 3.81; L 2.71; K 3.99; Y 2.82
R7: L 2.62; D 3.85; A 3.48; H 3.1; I 2.9; T 3.31; W 2.16; N 2.87; M 2.92; V 2.96; S 3.01; Q 3.38; G 3.12; Y 2.69; K 2.99; F 2.94; C 3.2; P 3.33; E 3.9
K15: E 3.72; G 2.83; I 2.51; W 2.76; H 2.57; Y 2.73; Q 2.72; V 2.71; L 2.76; F 3.01; C 2.41; M 2.79; P 4.03; A 2.71; R 2.59; S 2.74; T 3.07; N 3.26; D 3.58
Q8: N 2.97; A 2.85; I 2.64; W 2.19; V 2.35; M 2.92; R 2.95; Y 2.74; D 3.49; C 2.09; T 2.76; P 3.06; G 2.96; H 2.77; E 3.33; L 2.58; F 2.24; K 2.99; S 3.05
L10: G 3.17; R 2.84; I 2.83; Q 3.53; T 3.43; A 3.44; P 3.37; N 3.53; V 3.61; M 2.83; F 1.94; S 3.13; K 3.38; Y 2.5; W 2.48; D 3.9; H 3.3; E 3.35; C 3.21
